Assays:
GLUT-1 [1] = target: T1, GLUT-1 (Homo sapiens, UniProt P11166); test: Immunoprecipitation of GLUT-1-HA with anti-rabbit-Fc beads; type: binding; conditions: co-expression with GLUT-1 in 293T cells, probed with anti-HA antibody
T1 construct: factor Xa cleavage site (C); His (C); expressed in transfected cells
T1 sequence (P11166 1-492): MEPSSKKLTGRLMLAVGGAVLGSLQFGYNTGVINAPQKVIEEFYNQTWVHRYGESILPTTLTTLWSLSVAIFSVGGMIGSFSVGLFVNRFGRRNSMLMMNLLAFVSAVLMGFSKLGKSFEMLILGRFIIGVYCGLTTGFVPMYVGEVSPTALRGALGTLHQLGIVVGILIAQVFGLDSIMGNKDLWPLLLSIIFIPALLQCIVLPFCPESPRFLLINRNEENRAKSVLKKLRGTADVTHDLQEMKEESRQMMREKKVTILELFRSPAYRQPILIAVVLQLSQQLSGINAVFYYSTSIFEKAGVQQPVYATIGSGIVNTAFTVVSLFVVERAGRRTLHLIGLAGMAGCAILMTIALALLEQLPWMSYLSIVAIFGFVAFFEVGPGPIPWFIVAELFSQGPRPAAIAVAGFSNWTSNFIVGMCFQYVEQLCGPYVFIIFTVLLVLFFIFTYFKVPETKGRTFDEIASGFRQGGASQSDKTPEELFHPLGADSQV
Source text: FIGS. 4a-4c GLUT-1 is a receptor for HTLV envelopes. FIG. 4a, Binding of H1RBD, H2RBD, H2RBD D102A mutant, and ARBD to control 293T cells or 293T cells overexpressing either GLUT-1 or PiT2. FIG. 4b, Binding of H2RBD-EGFP to cells overexpressing GLUT-1-HA or GLUT-3-HA, and corresponding immunoblots using an anti-HA antibody. FIG. 4c, Immunoprecipitation of GLUT-1-HA from 293T cells transfected with either an irrelevant construct, GLUT-1 alone, H1RBD alone, H1RBD Y114A alone, GLUT-1 with H1RBD or GLUT-1 with H1RBD Y114A expression vectors Immunoprecipitation was performed using anti-rabbit-Fc beads and probed with an anti-HA antibody. Total cell extracts were blotted using an anti-rabbit Fc or an anti-HA antibody.
In order to directly test the ability of HTLV envelopes to bind GLUT-1, we derived a tagged GLUT-1 expression vector and overexpressed this protein in HeLa cells. […] GLUT-3 is the closest isoform to GLUT-1, and transports glucose with kinetics similar to that of GLUT-1. Thus, we derived a tagged GLUT-3 expression vector. […] To determine if GLUT-1 transfected cells were directly responsible for the observed increased in H1RBD binding, we derived fluorescent tagged GLUT-1 and GLUT-3 to uniquevocally identity GLUT-overexpressing cells in the course of our FACS analysis. […] To this end, we evaluated the ability of H1RBD to immunoprecipitate GLUT-1. […]

GLUT-1 [2] = target: T1, GLUT-1; test: RBD binding to cells overexpressing GLUT-1
Source text: In order to directly test the ability of HTLV envelopes to bind GLUT-1, we derived a tagged GLUT-1 expression vector and overexpressed this protein in HeLa cells. […] GLUT-3 is the closest isoform to GLUT-1, and transports glucose with kinetics similar to that of GLUT-1. Thus, we derived a tagged GLUT-3 expression vector. […] To determine if GLUT-1 transfected cells were directly responsible for the observed increased in H1RBD binding, we derived fluorescent tagged GLUT-1 and GLUT-3 to uniquevocally identity GLUT-overexpressing cells in the course of our FACS analysis. […] Consequently, we tested if HTLV glycoproteins directly interact with GLUT-1 proteins. To this end, we evaluated the ability of H1RBD to immunoprecipitate GLUT-1. […] Therefore, the GLUT-1 glucose transporter is an essential component of the HTLV envelope receptor.
Expression vectors. Full length envelope expression vectors for HTLV-1 (pCEL/2[Denesvre, 1995]) and Friend ecotropic MLV (pCEL/F [Denesvre, 1995]), have been previously described. For the HTLV-2 envelope, a fragment from pHTE2 [Rosenberg, 1998] encompassing the tax, rex and env genes and the 3′ LTR was inserted in the pCSI [Battini, 1999] vector (pCSIX.H2). Full length envelope expression vectors for amphotropic MLV (pCSI.A), or devoid of its R peptide (pCSI.AΔR), and H183FEnv that contains the N-terminal 183 amino acids of the HTLV-1 receptor-binding domain in the F-MLV envelope background, as well as truncated envelope expression vectors, derived from pCSI and encoding either of the first 215 residues of HTLV-1 SU (H1RBD), the first 178 residues of HTLV2-SU (H2RBD) or the first 397 residues of the amphotropic murine leukemia virus (MLV) SU (Amp), fused to a C-terminal rabbit IgG Fc tag (rFc) or to EGFP (H2RBD-GFP). All point mutations introduced in HTLV-1 and -2 RBD constructs were generated using the quickchange site-directed mutagenesis method and mutations were verified by sequencing. Human Glut-1 and Glut-3 cDNA were amplified by PCR from the pLib HeLa cDNA library (Clontech), and inserted into pCHIX, a modified version of the pCSI vector that contains a cassette comprising a factor Xa cleavage site, two copies of the hemagglutinin (HA) tag, and a histidine tag. The resulting construct (pCHIX.hGLUT1) encodes a GLUT-1 protein with a HA-His tag at the C-terminal end. GLUT-1 and GLUT-3 were also inserted in a modified pCSI vector containing a DsRed2 C-terminal tag. Similarly, human CD147 was amplified from 293T total RNA by RT-PCR and inserted into the pCHIX backbone in frame with the HA-His tag (pCHIX.hCD147).
(§1) Binding assays. […] Binding was analyzed on a FACSCalibur (Becton Dickinson) and data analysis was performed using CellQuest (Becton Dickinson) and WinMDI (Scripps) softwares.

human erythrocytes = test: RBD binding on freshly isolated human erythrocytes; conditions: freshly isolated red blood cells
Method: Binding assays. Binding assays were carried out as previously described [Manel, 2003]. Briefly, 5×10^5 cells (293T, HeLa, Jurkat or freshly isolated human erythrocytes) were incubated with 500 μl of H1RBD, H2RBD or ARBD supernatants for 30 min at 37° C., washed with PBA (1% BSA, 0.1% sodium azide in PBS), and incubated with a sheep anti-rabbit IgG antibody conjugated to fluorescein isothiocyanate (Sigma). […] Binding was analyzed on a FACSCalibur (Becton Dickinson) and data analysis was performed using CellQuest (Becton Dickinson) and WinMDI (Scripps) softwares.

MCT1 and CD147 = test: RBD binding upon overexpression of MCT1 and CD147; set-up: species or system human
Source text: Extracellular lactate accumulates in cell cultures following its transport across cellular membranes by the MCT1 monocarboxylate transporter [Garcia, 1994]. Because HTLV and MLV share a common organization of the extracellular envelope [Kim, 2000] and the receptors for MLV Env are multispanning metabolite transporters [Overbaugh, 2001], we assessed whether the HTLV RBD bound to MCT1. Moreover, similar to our previous data concerning expression of the HTLV receptor on T cells [Manel, 2003], expression of MCT1 chaperone CD147 [Kirk, 2000] increases during T cell activation [Kasinrerk, 1992].
Expression vectors. Full length envelope expression vectors for HTLV-1 (pCEL/2[Denesvre, 1995]) and Friend ecotropic MLV (pCEL/F [Denesvre, 1995]), have been previously described. For the HTLV-2 envelope, a fragment from pHTE2 [Rosenberg, 1998] encompassing the tax, rex and env genes and the 3′ LTR was inserted in the pCSI [Battini, 1999] vector (pCSIX.H2). […]
as §1

B1: H1RBD: first 215 residues of HTLV-1 SU fused to a C-terminal rabbit IgG Fc tag (rFc) (protein)
chain: DYSPSCCTLTIGVSSYHSKPCNPAQPVCSWTLDLLALSADQALQPPCPNLVSYSSYHATYSLYLFPHWIKKPNRNGGGYYSASYSDPCSLKCPYLGCQSWTCPYTGAVSSPYWKFQQDVNFTQEVSRLNINLHFSKCGFPFSLLVDAPGYDPIWFLNTEPSQLPPTAPPLLPHSNLDHILEPSIPWKSKLLTLVQVDVPRDCGCKPCICTVPEVSSVFIFPPKPKDVLTITLTPKVTCVVVDISKDDPEVQFSWFVDDVEVHTAQTQPREEQFNSTFRSVSELPIMHQDWLNGKEFKCRVNSAAFPAPIEKTISKTKGRPKAPQVYTIPPPKEQMAKDKVSLTCMITDFFPEDITVEWQWNGQPAENYKNTQPIMDTDGSYFVYSKLNVQKSNWEAGNTFTCSVLHEGLHNHHTEKSLSHSPGK
detection of GLUT-1 upon immunoprecipitation with anti-rabbit-Fc-beads (GLUT-1 [1]): readily detected
H1RBD binding to cells overexpressing GLUT-1-DsRed2 (GLUT-1 [2]; fluorescent tagged GLUT-1, FACS analysis): significant increase
binding upon GLUT-1 overexpression (GLUT-1 [2]; tagged GLUT-1 expression vector, HeLa cells / 293T cells (FIG. 4a legend)): dramatically increased
binding on human erythrocytes (human erythrocytes): strikingly efficient
H1RBD binding upon separate and combined overexpression of MCT1 and CD147 (MCT1 and CD147): did not result in increased H1RBD binding
